Numbering of substitutions follows the chain as printed.

In data set [1] the target is T1, Elk-ets (HA-tagged ETS domain) (UniProt P19419 5-86).
T1 sequence: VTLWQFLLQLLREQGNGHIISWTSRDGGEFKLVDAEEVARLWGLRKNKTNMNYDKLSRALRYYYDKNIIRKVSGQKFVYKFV
Nature of the data set: EMSA.

A further data set has as its target T2, Elk-ΔA (UniProt P19419 1-253).
T2 sequence: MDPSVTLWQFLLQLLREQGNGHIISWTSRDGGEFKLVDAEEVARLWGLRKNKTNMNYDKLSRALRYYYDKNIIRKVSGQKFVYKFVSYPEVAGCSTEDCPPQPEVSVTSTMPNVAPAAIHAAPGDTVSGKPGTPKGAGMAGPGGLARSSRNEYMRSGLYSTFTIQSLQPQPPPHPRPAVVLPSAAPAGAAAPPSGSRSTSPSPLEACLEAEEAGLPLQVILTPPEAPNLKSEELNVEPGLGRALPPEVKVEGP
The data set is described as follows: EMSA. (In general: Mobility shift assays separate free from complexed probe on a gel.)

In data set [2] the target is PU.1-ets (HA-tagged ETS domain) (UniProt P17947 170-253). The data set is described as follows: EMSA.
The target of data set [3] is T3, ets-DM (HA-Elk-ets DNA-binding mutant) (UniProt P19419 5-86, R65A;Y66F).
T3 sequence: T1 sequence with R61A, Y62F
The data set is described as follows: native gel EMSA.

Data set [4] addresses T1, Elk-ets (HA-tagged ETS domain). The data set is described as follows: native gel EMSA.

B1: E74 duplex (dsDNA)
DNA 1: CTAGAGCTGAATAACCGGAAGTAACTCAT
DNA 2: CTAGATGAGTTACTTCCGGTTATTCAGCT
Take B1: the binding result in data set [1] is reported as “binds”; with Elk-ΔA, “binds”; in data set [2], “binds”; in data set [3], “no binding”.

B2: CON control duplex (dsDNA)
DNA 1: AGACCAACATGAATTACGACAGGCTCAGCCGGG
DNA 2: CCCGGCTGAGCCTGTCGTAATTCATGTTGGTCT
As for B2, the binding result in data set [4] is given as “no binding”.

Source of the values: PMC3159454.
